Test results: patent US7611721B1, “Adjuvant combination formulations” (priority 2000, dated 2009)

Assays:
[1] = system: spleen cells; type: cell-based, Balb/c mice; conditions: for Spleen cell proliferation, Con A 1 μg/ml / Spleen cell proliferation, HIV Peptide 1.1 μg/ml / Spleen cell proliferation, HIV Peptide 3.3 μg/ml / Spleen cell proliferation, HIV Peptide 10 μg/ml: Experiment 1, immunized days 0 and 28, culture day 56, 96 hours; for Spleen cell proliferation index normalized to ConA, Con A 5 μg/ml / Spleen cell proliferation index normalized to ConA, HIV Peptide 1.1 μg/ml / Spleen cell proliferation index normalized to ConA, HIV Peptide 3.3 μg/ml / Spleen cell proliferation index normalized to ConA, HIV Peptide 10 μg/ml / Spleen cell proliferation index normalized to ConA, Lysozyme 10 μg/ml: Experiment 2, 96 hours culture; for Spleen cell proliferation index normalized to ConA, HIV Peptide 1.1 μg/ml / Spleen cell proliferation index normalized to ConA, HIV Peptide 3.3 μg/ml / Spleen cell proliferation index normalized to ConA, HIV Peptide 10 μg/ml / Spleen cell proliferation index normalized to ConA, Lysozyme 10 μg/ml: values in parentheses are less than unstimulated cells
Experimental: (§1) For proliferation assays and in vitro cytokine analysis, spleen cells were obtained from mice at the indicated time points. Single cell suspensions were prepared from pools of 3-5 mice as indicated in Results. For proliferation and cytokine analysis, cells were suspended in round bottom 96 well culture plates precoated overnight with HIV peptide antigens, control proteins, or RPMI-10 only. Spleen cells were added at 5×10^5 cells/well using culture medium having 2× supplements. Cell culture supernatants were harvested from triplicate wells for cytokine analysis three or six days after culture initiation. Immediately after supernatant harvest, cultures were pulsed with ^3H-thymidine for 18-24 hours, and harvested to quantify cell proliferation.
Groups of five Balb/c female mice were immunized with 25 μg T1SP10MN(A) (−Cys) and the indicated adjuvants on days 0 and 28. Spleen cells were established in culture on day 56, and harvested for measurement of ^3H-thymidine incorporation 96 hours later. Mice were immunized with 50 ng IL-12, […], 50 μg MPL™ in an aqueous formulation, or as a stable emulsion with 2% SE. Data are presented as the delta cpm values as compared to proliferation values measured from cells grown in culture without stimulation.
Cells were cultured for a total of 96 hours. ^3H-thymidine was added to cultures for the last 18 hours. Data are presented as a proliferation index normalized to cells stimulated in culture with ConA ([mean cpm Antigen/mean cpm ConA]−[mean cpm medium/mean cpm ConA])×100. As a result, cells cultured in medium have a background proliferation of 0. Proliferation values less than cells grown in culture unstimulated are in parentheses.

[2] = system: spleen cells; experiment: Secretion of IL-4 by spleen cells (ELISA); type: cell-based, Balb/c mice; conditions: for Secretion of IL-4, Con A 1 μg/ml: Experiment 1, Three Day Cultures, detection limit 22 Units/ml; for Secretion of IL-4, Con A 5 μg/ml / Secretion of IL-4, HIV Peptide 1.1 μg/ml / Secretion of IL-4, HIV Peptide 3.3 μg/ml / Secretion of IL-4, HIV Peptide 10 μg/ml: Experiment 2, 96 hours culture, after subtraction of lysozyme value; for Secretion of IL-4, HIV Peptide 1.1 μg/ml / Secretion of IL-4, HIV Peptide 3.3 μg/ml / Secretion of IL-4, HIV Peptide 10 μg/ml: bd = below limit of detection
Experimental: as §1
For cytokine analysis, cell culture supernatants were added to wells coated with BVD6-11B11 (for anti-IL4), or R4-6A2 (for interferon-gamma). After incubation and washing, wells were developed using biotin-labeled BVD6-24G2 (for IL4) or XMG 1.2 (for interferon-gamma). The concentration of cytokines was determined using a standard curve prepared from recombinant murine interferon-gamma or interleukin-4. All cytokine reagents were purchased from Pharmingen (San Diego, Calif.).
Interleukin-4 secreted into culture by spleen cells stimulated with 25 μg T1SP10MN(A) (−Cys) was measured. Spleen cells were harvested from pools of five Balb/c female mice and cultured with the indicated antigenic stimuli (50 ng IL-12, 10 μg GM-CSF, 50 μg MPL™ as indicated) for either three or six days. Interleukin-4 levels were determined by ELISA, and compared to a standard having a known concentration. Blank wells indicate that the assay could not detect Interleukin-4 from those culture conditions. The lower limit of detection sensitivity was 22 Units/ml.
Cells were cultured for a total of 96 hours. Cell culture supernatants were analyzed for IL-4 by ELISA. All values were after subtraction from those determined from supernatants of cells stimulated with 10 μg of an irrelevant protein (lysozyme). Results which were below the limit of detection, after subtraction from stimulation induced with lysozyme are indicated as “bd”. The adjuvants were 40 ng IL-12, 10 μg GM-CSF and 50 μg MPL™.

[3] = system: Neisseria gonorrhoeae Porin B protein; experiment: Reciprocal anti-Porin B protein serum IgG endpoint subclass titers; type: in vivo, Swiss-Webster mice; conditions: Experiment 11; pooled serum n=5 Swiss-Webster; 1 μg Porin B s.c. week 0 and 4
Experimental: (§2) Outbred Swiss-Webster mice were divided into five groups of ten mice each. Each group received 1 μg of recombinant Porin B protein (from strain FA1090 with 16 amino acids at the amino-terminus from a phage, followed by the mature form of the Porin B protein). […] Mice were immunized subcutaneously in the rump with a total volume of 0.2 ml, divided equally into each of two sites at the base of the tail/rump. Immunizations were administered at week 0 and week 4.
Mice were bled the day prior to each immunization, and at 13 days after the final immunization. Serum was analyzed from pools from mice within groups. […] All day 0 pre-immunization titers were less than 50.
Individual week 6 IgG titer geometric means against the recombinant Porin B protein were also determined.
as §2, with “six” for “five”, “five” for “ten”, “ml.” for “ml, divided equally into each of two sites at the base of the tail/rump.”
(§3) Mice were bled the day prior to each immunization, and at 13 days after the final immunization. Serum was analyzed from pools from mice within groups. […] All day 0 pre-immunization titers were less than 50. The starting dilution for vaginal lavage analysis was 1/5.

[4] = system: Neisseria gonorrhoeae Porin B protein; experiment: Vaginal wash anti-Porin B protein IgG and IgA titers; type: in vivo, Swiss-Webster mice; conditions: Experiment 11; Swiss-Webster; starting dilution 1/5
Experimental: as §2, with “six” for “five”, “five” for “ten”, “ml.” for “ml, divided equally into each of two sites at the base of the tail/rump.”
as §3

[5] = system: RSV F protein; conditions: Experiment 14; pooled serum n=5 Balb/c; 3 μg F protein s.c. week 0 and 4
RSV F protein, sequence (P03420 137-574): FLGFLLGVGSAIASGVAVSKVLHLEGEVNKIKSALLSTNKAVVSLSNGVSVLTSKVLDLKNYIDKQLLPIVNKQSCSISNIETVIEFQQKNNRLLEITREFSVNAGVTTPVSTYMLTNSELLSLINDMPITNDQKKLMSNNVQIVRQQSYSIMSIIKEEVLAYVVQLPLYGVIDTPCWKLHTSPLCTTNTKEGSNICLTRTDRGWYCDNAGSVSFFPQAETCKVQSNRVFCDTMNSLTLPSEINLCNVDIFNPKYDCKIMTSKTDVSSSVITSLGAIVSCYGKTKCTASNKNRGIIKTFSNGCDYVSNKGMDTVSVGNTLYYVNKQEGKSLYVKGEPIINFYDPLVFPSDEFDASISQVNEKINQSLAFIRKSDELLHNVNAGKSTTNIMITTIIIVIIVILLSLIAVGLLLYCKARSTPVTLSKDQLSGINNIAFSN

B1: rIL-12: Recombinantly expressed murine IL-12 (Genetics Institute) (protein, UniProt P43431 23-215; P43432 23-335, looked up)
Interleukin-12 subunit alpha: RVIPVSGPARCLSQSRNLLKTTDDMVKTAREKLKHYSCTAEDIDHEDITRDQTSTLKTCLPLELHKNESCLATRETSSTTRGSCLPPQKTSLMMTLCLGSIYEDLKMYQTEFQAINAALQNHNHQQIILDKGMLVAIDELMQSLNHNGETLRQKPPVGEADPYRVKMKLCILLHAFSTRVVTINRVMGYLSSA
Interleukin-12 subunit beta: MWELEKDVYVVEVDWTPDAPGETVNLTCDTPEEDDITWTSDQRHGVIGSGKTLTITVKEFLDAGQYTCHKGGETLSHSHLLLHKKENGIWSTEILKNFKNKTFLKCEAPNYSGRFTCSWLVQRNMDLKFNIKSSSSSPDSRAVTCGMASLSAEKVTLDQRDYEKYSVSCQEDVTCPTAEETLPIELALEARQQNKYENYSTSFFIRDIIKPDPPKNLQMKPLKNSQVEVSWEYPDSWSTPHSYFSLKFFVRIQRKKEKMKETEEGCNQKGAFLVEKTSTEVQCKGGNVCVQAQDRYYNSSCSKWACVPCRVRS
- Spleen cell proliferation, Con A 1 μg/ml [1]: 42,612 delta cpm
- Spleen cell proliferation, HIV Peptide 1.1 μg/ml [1]: 308 delta cpm
- Spleen cell proliferation, HIV Peptide 3.3 μg/ml [1]: 692 delta cpm
- Spleen cell proliferation, HIV Peptide 10 μg/ml [1]: 809 delta cpm
- Spleen cell proliferation index normalized to ConA, Con A 5 μg/ml [1]: 99.1
- Spleen cell proliferation index normalized to ConA, HIV Peptide 1.1 μg/ml [1]: 0.5
- Spleen cell proliferation index normalized to ConA, HIV Peptide 3.3 μg/ml [1]: 0.2
- Spleen cell proliferation index normalized to ConA, HIV Peptide 10 μg/ml [1]: 0.2
- Spleen cell proliferation index normalized to ConA, Lysozyme 10 μg/ml [1]: 0.2
- Secretion of IL-4, Con A 1 μg/ml [2]: 156 Units/ml
- Secretion of IL-4, Con A 5 μg/ml [2]: 411 pg/mL
- Secretion of IL-4, HIV Peptide 1.1 μg/ml [2]: 15 pg/mL
- Secretion of IL-4, HIV Peptide 3.3 μg/ml [2]: bd
- Secretion of IL-4, HIV Peptide 10 μg/ml [2]: bd
- Reciprocal anti-Porin B Protein IgG1 endpoint titer, Week 3 [3]: 2,578
- Reciprocal anti-Porin B Protein IgG1 endpoint titer, Week 6 [3]: 6,278
- Reciprocal anti-Porin B Protein IgG2a endpoint titer, Week 3 [3]: 2,071
- Reciprocal anti-Porin B Protein IgG2a endpoint titer, Week 6 [3]: 58,552
- Reciprocal anti-Porin B Protein IgG endpoint titer, Week 3 [3]: 7,266
- Reciprocal anti-Porin B Protein IgG endpoint titer, Week 6 [3]: 571,325
- Vaginal Wash IgA titer, anti-Porin B Protein [4]: 5
- Vaginal Wash IgG titer, anti-Porin B Protein [4]: 93
- Reciprocal anti-RSV F Protein IgG1 endpoint titer, Week 3 [5]: 3,442
- Reciprocal anti-RSV F Protein IgG1 endpoint titer, Week 6 [5]: 1,345,099
- Reciprocal anti-RSV F Protein IgG2a endpoint titer, Week 3 [5]: 500
- Reciprocal anti-RSV F Protein IgG2a endpoint titer, Week 6 [5]: 65,951
- Reciprocal anti-RSV F Protein IgG endpoint titer, Week 3 [5]: 13,557
- Reciprocal anti-RSV F Protein IgG endpoint titer, Week 6 [5]: 4,459,059

B2: GM-CSF: Recombinant murine granulocyte macrophage colony stimulating factor (protein, UniProt P01587 18-141, looked up)
Granulocyte-macrophage …: APTRSPITVTRPWKHVEAIKEALNLLDDMPVTLNEEVEVVSNEFSFKKLTCVQTRLKIFEQGLRGNFTKLKGALNMTASYYQTYCPPTPETDCETQVTTYADFIDSLKTFLTDIPFECKKPGQK
- Spleen cell proliferation, Con A 1 μg/ml [1]: 55,578 delta cpm
- Spleen cell proliferation, HIV Peptide 1.1 μg/ml [1]: 14,249 delta cpm
- Spleen cell proliferation, HIV Peptide 3.3 μg/ml [1]: 19,784 delta cpm
- Spleen cell proliferation, HIV Peptide 10 μg/ml [1]: 25,821 delta cpm
- Spleen cell proliferation index normalized to ConA, Con A 5 μg/ml [1]: 99.0
- Spleen cell proliferation index normalized to ConA, HIV Peptide 1.1 μg/ml [1]: 1.6
- Spleen cell proliferation index normalized to ConA, HIV Peptide 3.3 μg/ml [1]: 2.7
- Spleen cell proliferation index normalized to ConA, HIV Peptide 10 μg/ml [1]: 6.8
- Spleen cell proliferation index normalized to ConA, Lysozyme 10 μg/ml [1]: 0.1
- Secretion of IL-4, Con A 1 μg/ml [2]: 159 Units/ml
- Secretion of IL-4, Con A 5 μg/ml [2]: 226 pg/mL
- Secretion of IL-4, HIV Peptide 1.1 μg/ml [2]: 36 pg/mL
- Secretion of IL-4, HIV Peptide 3.3 μg/ml [2]: 9 pg/mL
- Secretion of IL-4, HIV Peptide 10 μg/ml [2]: bd
